Sequences and labels used below:
B1: C4m3127-4th-NNS6-37 (peptide, not shown: large carriers; small tags and cut ends)
chain: GGCWHPVLPIRSIHFCGC
B2: C4m#19-5th4w-NN6-40 (peptide, not shown: large carriers; small tags and cut ends)
chain: GGCFHPFLPIRSHHFCML
B3: C4m#19-5th2w-NNS6-93 (peptide, not shown: large carriers; small tags and cut ends)
chain: GGCFHPFLPIQSRHFCCR
B4: C4m3127-4th-NNS6-95 (peptide, not shown: large carriers; small tags and cut ends)
chain: GGCWHPVLPIRSGHFCSR
B5: C4m#19-5th2w-NNS6-41 (peptide, not shown: large carriers; small tags and cut ends)
chain: GGCWHPVLPIRSDHFCCR
B6: C4m#19-5th4w-NN6-49 (peptide, not shown: large carriers; small tags and cut ends)
chain: GGCMHPYLPIRSFHFCSC
B7: C4m#19-5th2w-NNS6-80 (peptide, not shown: large carriers; small tags and cut ends)
chain: GGCLHPFLPIVSWHFCPC
B8: C4m#19-5th4w-NN6-80 (peptide, not shown: large carriers; small tags and cut ends)
chain: GGCRHPFLPIFSWHFCAV
B9: C4-302mat-3-1-12 (peptide, not shown: large carriers; small tags and cut ends)
chain: GGCMHPFLPVVSRHFCGR
B10: C4-302mat-3-100-44 (peptide, not shown: large carriers; small tags and cut ends)
chain: GGCLHPFLPIVSHHFCGR
B11: biotinylated H12SSI-Ctla4-3-02: Biotin-PEG4-… (peptide)
peptide: {Biotin-PEG4′}-KCMHPFLLVVSHHFC
modifications: disulfide 2-15
B12: biotinylated clone #19: Biotin-PEG4-… (peptide)
peptide: {Biotin-PEG4}-KCMHPFLPIVSHHFCER
modifications: disulfide 2-15
B13: C4-302mat-2-100-27 (peptide, not shown: large carriers; small tags and cut ends)
chain: GGCMHPFLPIVSHHFCGS
B14: C4-302mat-3-1-45 (peptide, not shown: large carriers; small tags and cut ends)
chain: GGCRHPFLPIVSRHFCRG
B15: C4-302mat-2-1-27 (peptide, not shown: large carriers; small tags and cut ends)
chain: GGCMHPYLPVISHHFCGG
B16: C4-302mat-3-1-31 (peptide, not shown: large carriers; small tags and cut ends)
chain: GSCMHPFLPVASRHFCGR
B17: C4-302mat-2-1-38 (peptide, not shown: large carriers; small tags and cut ends)
chain: GGCLHPFLPLVSHHFCGG
B18: C4-302mat-1-1-35 (peptide, not shown: large carriers; small tags and cut ends)
chain: GGCMHPFLPVASHHFCGG
B19: C4-302mat-2-100-18 (peptide, not shown: large carriers; small tags and cut ends)
chain: GGCMHPFLPVVSHHFCRG
B20: C4-302mat-3-1-10 (peptide, not shown: large carriers; small tags and cut ends)
chain: GGCKHPYLPVASHHFCRG
B21: C4-302mat-3-1-23 (peptide, not shown: large carriers; small tags and cut ends)
chain: GGCMHPFLPIASLHFCGR
B22: C4-302mat-3-100-12 (peptide, not shown: large carriers; small tags and cut ends)
chain: GGCMHPYLPVISHHFCGR
B23: C4-302mat-2-1-3 (peptide, not shown: large carriers; small tags and cut ends)
chain: GGCMHPFLPVTSHHFCGG
B24: C4-302mat-3-1-35 (peptide, not shown: large carriers; small tags and cut ends)
chain: GGCMHPFLQTVSHHFCGG
B25: C4-302mat-3-1-5 (peptide, not shown: large carriers; small tags and cut ends)
chain: GGCMHPFLPVVSRHFCGG
B26: C4-302mat-3-1-22 (peptide, not shown: large carriers; small tags and cut ends)
chain: GGCMHPFLPVASHHFCGR
B27: C4-302mat-2-1-2 (peptide, not shown: large carriers; small tags and cut ends)
chain: GGCLHPFLPVVSHHFCGD
B28: C4-302mat-3-100-27 (peptide, not shown: large carriers; small tags and cut ends)
chain: GGCMHPFLPVASHHFCAG
B29: H12SSI-Ctla4-3-02 (MBP fusion) (peptide, not shown: large carriers; small tags and cut ends)
chain: GGCMHPFLLVVSHHFCGG
B30: C4-302mat-3-1-48 (peptide, not shown: large carriers; small tags and cut ends)
chain: GGCMHPFLPVVSHHFCGA
B31: C4-302mat-2-100-4 (peptide, not shown: large carriers; small tags and cut ends)
chain: GGCMHPFLQVVSHHFCGG
B32: C4-302mat-3-100-37 (peptide, not shown: large carriers; small tags and cut ends)
chain: GGCMHPFLPVVSHHFCGR
B33: C4-302mat-3-1-32 (peptide, not shown: large carriers; small tags and cut ends)
chain: GGCMHPFLPILSHHFCAG
B34: C4-302mat-3-100-9 (peptide, not shown: large carriers; small tags and cut ends)
chain: GGCKHPFLPVVSHHFCGG
B35: C4-302mat-1-1-37 (peptide, not shown: large carriers; small tags and cut ends)
chain: GGCMHPFLRVVSHHFCGG
B36: C4-302mat-3-100-20 (peptide, not shown: large carriers; small tags and cut ends)
chain: GGCVHPFLPVVSHHFCRG
B37: C4-302mat-1-1-24 (peptide, not shown: large carriers; small tags and cut ends)
chain: GGCMHPFLPVVSHHFCGG

Bridges are numbered along the chain shown (N, C = ends). Primed or numbered codes have the meaning given here. Where no end group is shown, it is not given here. The star is where a group is joined. Biotin = O=C1N[C@H]2[C@H](CS[C@H]2CCCCC(=O)*)N1; PEG4 = NCCOCCOCCOCCOCCC(=O)O; PEG4′ = not defined here

The Kd is the equilibrium constant for the complex coming apart. Broadly, the koff is a measure of how fast the partners let go of each other. Broadly, the kon is a measure of how fast the partners come together. As a reminder, the EC50 is the concentration needed to bring the measured effect to its halfway point.

The target in one assay is Recombinant Human CTLA4-Fc chimera (R&D systems) (human) (UniProt P16410). The assay can be described thus: ELISA, signal over SA.
As to B1, the ELISA S/N(SA) came out at 3.5.
As to B2, the ELISA S/N(SA) was 4.
In the case of B3, the ELISA S/N(SA) turned out to be 3.4.
B4: the ELISA S/N(SA) stood at 3.4.
Same read-out and setting: in the case of B5 it was 3.1; in that of B6, 4; in that of B7, 3.6.
Consider B8, for which the ELISA S/N(SA) came to 3.8.

The next assay has the same target. The assay can be described thus: ELISA EC50, purified MBP fusions.
B9: the fold improvement of affinity over the original clone amounted to 50 fold.
Consider B10, for which the fold improvement of affinity over the original clone worked out at 50 fold.

The target is the same in the next assay. The assay can be described thus: BLItz (BLI), biotinylated peptide on SA chip, CTLA-4 protein as analyte.
For B11, the Kd stood at 191 nM, the koff was determined as 0.022 s⁻¹ and the kon turned out to be 115000 M⁻¹ s⁻¹.
The matching figures for B12: 61.8 nM, 0.0128 s⁻¹ and 208000 M⁻¹ s⁻¹.

The target is the same in the next assay. The assay can be described thus: ELISA, purified MBP fusion on immobilised CTLA-4. (In general: In an ELISA, binding on a coated surface is turned into a signal by an enzyme label.)
On to B13, for which the EC50 stood at 189 nM.
As to B9, the concentration for a half-maximal effect (EC50) turned out to be 85 nM.
For B14, the EC50 was 300 nM.
Same read-out and setting: the same measure for B15: 1640 nM.
Turning to B16, the EC50 stood at 342 nM.
Consider B17, for which the EC50 is 867 nM.
As for B18, the EC50 was 288 nM.
For B10, the EC50 is 82 nM.
As to B19, the EC50 was found to be 369 nM.
Same read-out and setting: the same measure for B20: 703 nM; for B21: 160 nM.
For B22, the EC50 amounted to 217 nM.
On to B23, for which the EC50 was 826 nM.
Take B24: the EC50 was 668 nM.
In the case of B25, the EC50 turned out to be 674 nM.
B26: the concentration giving a half-maximal response (EC50) worked out at 222 nM.
In the case of B27, the EC50 worked out at 474 nM.
B28: the EC50 came to 352 nM.
On to B29, for which the EC50 came to 3920 nM.
On the same count and under the same terms, in the case of B30 it was 187 nM; in that of B31, 4180 nM.
B32: the 50% effective concentration (EC50) was found to be 225 nM.
As to B33, the EC50 was determined as 322 nM.
With B34, the EC50 came out at 832 nM.
The same measure, in the same setting: in the case of B35 it was 1490 nM.
Consider B36, for which the EC50 amounted to 889 nM.
Consider B37, for which the EC50 was 1040 nM.

Another assay shares this target. Put plainly: BLItz (BLI), synthetic biotinylated peptides.
On to B12, for which the fold higher affinity than the original clone (H12SSI-Ctla4-3-02) turned out to be 3 fold.

For a further assay the target is unchanged. The assay can be described thus: BLItz (BLI), biotinylated CTLA-4 on SA chip, MBP fusion as analyte.
For the molecule B29, the Kd was found to be 3880 nM, the koff amounted to 0.0123 s⁻¹ and the kon was determined as 3180 M⁻¹ s⁻¹.
